Measurements from IntAct's records for PubMed 24970085.

B1: Lysosome-associated membrane glycoprotein 1 (Homo sapiens), P11279 (parent)
chain: MAAPGSARRPLLLLLLLLLLGLMHCASAAMFMVKNGNGTACIMANFSAAFSVNYDTKSGPKNMTFDLPSDATVVLNRSSCGKENTSDPSLVIAFGRGHTLTLNFTRNATRYSVQLMSFVYNLSDTHLFPNASSKEIKTVESITDIRADIDKKYRCVSGTQVHMNNVTVTLHDATIQAYLSNSSFSRGETRCEQDRPSPTTAPPAPPSPSPSPVPKSPSVDKYNVSGTNGTCLLASMGLQLNLTYERKDNTTVTRLLNINPNKTSASGSCGAHLVTLELHSEGTTVLLFQFGMNASSSRFFLQGIQLNTILPDARDPAFKAANGSLRALQATVGNSYKCNAEEHVRVTKAFSVNIFKVWVQAFKVEGGQFGSVEECLLDENSMLIPIAVGGALAGLVLIVLIAYLVGRKRSHAGYQTI

Variants of: B1
Settings: with glyc_lassj GPC

Variant	effect of a mutation on the interaction
N76S	disrupting interaction
